Results: PMC5017159

Experiments:
[1] = molecular target: human heat shock protein 70 (hHsp70) (human) (UniProt P0DMV8); test: BLI; Octet Red; biotinylated hHsp70 immobilised on streptavidin tips, dipped into E. coli GAPDH (39.5, 59.3, 88.9, 133.3 and 200 nM) in PBS; association 600 s, dissociation 900 s; 1:1 model
[2] = molecular target: human GAPDH (human) (UniProt P04406); test: BLI; Octet Red; biotinylated human GAPDH immobilised on streptavidin tips, dipped into hHsp70 (2.05, 5.12, 12.8, 32 and 80 nM) in PBS; association 600 s, dissociation 900 s; 1:1 model
UniProt P04406, sequence (P04406 whole entry): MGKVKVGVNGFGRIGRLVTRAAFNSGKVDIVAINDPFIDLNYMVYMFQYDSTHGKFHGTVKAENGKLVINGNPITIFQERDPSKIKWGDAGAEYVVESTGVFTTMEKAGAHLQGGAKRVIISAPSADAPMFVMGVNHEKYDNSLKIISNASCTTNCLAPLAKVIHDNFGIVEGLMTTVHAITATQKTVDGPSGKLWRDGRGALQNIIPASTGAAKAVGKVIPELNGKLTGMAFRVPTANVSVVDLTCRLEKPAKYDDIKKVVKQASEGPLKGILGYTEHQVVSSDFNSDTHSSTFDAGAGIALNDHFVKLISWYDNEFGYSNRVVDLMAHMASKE

“E. coli glyceraldehyde 3-phosphate deshydrogenase (GAPDH), recombinant (from UniProt P0A9B2 1-331) (enzyme)” was tested. Which Kd [1] did it give?
Its Kd is 8.2 nM.

What about the koff [1] of the same substance?
Its koff is 0.00024 s⁻¹.

What about the kon [1] of the same substance?
Its kon is 29300 M⁻¹ s⁻¹.

For “human heat shock protein 70 (hHsp70) (from UniProt P0DMV8 1-641) (natural protein)”, which Kd [2] is on record?
The Kd was 1.3 nM.

What about the koff [2] of the same substance?
The koff was 9.3e-05 s⁻¹.

What about the kon [2] of the same substance?
Its kon is 72400 M⁻¹ s⁻¹.
